Source: article PMC8801479, “The anti-Müllerian hormone prodomain is displaced from the hormone/prodomain complex upon bivalent binding to the hormone receptor” (The Journal of Biological Chemistry, 2021)
Blank lines part the entries; values can stand above or below the binder they belong to.

Tests used:
[1] = biological target: T1, BMP-7 prodomain biotinylated through amines (human, UniProt P18075 30-292, biotin through amines (EZ-Link NHS-PEG4-Biotin)); assay: ELISA; BMP-7 complexes with biotinylated prodomain or biotinylated GF captured on anti-BMP-7 GF mAb; bound prodomain or GF detected with SA-HRP (biotinylated prodomain preparation also added as preformed complex with SA-HRP); 0.1% Tween-20 in all incubations; Kd from modeling of the concentration dependence; conditions: both partners purified
T1 construct: prodomain of human bone morphogenetic protein 7 (BMP-7); 90% pure, with about 10% unprocessed BMP-7; also called biotinylated prodomain; source: CHO cells; soluble BMP-7 biotinylated, prodomain eluted from Zn-chelating Sepharose with 50 mM imidazole
T1 sequence (P18075 30-292): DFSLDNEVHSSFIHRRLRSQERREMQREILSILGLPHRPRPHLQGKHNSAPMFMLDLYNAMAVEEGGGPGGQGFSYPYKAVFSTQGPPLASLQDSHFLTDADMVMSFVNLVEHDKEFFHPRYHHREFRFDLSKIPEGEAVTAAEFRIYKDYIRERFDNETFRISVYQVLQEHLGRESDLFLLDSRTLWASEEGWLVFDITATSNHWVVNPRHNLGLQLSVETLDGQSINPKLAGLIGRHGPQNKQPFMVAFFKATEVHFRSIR

[2] = biological target: T2, AMHR2-Fc/Fc, heterodimer of one AMHR2-Fc chain (extracellular domain of human AMHR2 fused to human IgG1 Fc) … (human, UniProt Q16671 18-149; P01857 104-330 = IgG part); assay: ELISA; AMHR2-Fc/Fc (0.75 ug/ml) captured on goat antihuman Fc Ab coated on the plate; c-AMH or GF serially diluted, 2 to 4 h; bound AMH detected with biotinylated mAb-C1 (GF) or mAb-N1 (prodomain) and SA-HRP; data fit to the quadratic equation for a reversible association reaction; conditions: both partners purified
T2 construct: extracellular domain of human anti-Müllerian hormone receptor type-2 (AMHR2); Fc portion of human IgG1 (Ig gamma-1 chain constant region), the Fc-only chain; Functionally monovalent for AMHR2; also called soluble receptor; soluble AMHR2; source: human embryonic kidney 293E cells, purified from conditioned medium (Protein A Sepharose, size-exclusion chromatography); copies: 1 + 1

- Kd [1]: 0.1 to 0.2 nM
B1: mature BMP-7 growth factor (unmodified mature domain) (ligand, human, UniProt P18075 293-431, looked up)
chain: STGSKQRSQNRSKTPKNQEALRMANVAENSSSDQRQACKKHELYVSFRDLGWQDWIIAPEGYAAYYCEGECAFPLNSYMNATNHAIVQTLVHFINPETVPKPCCAPTQLNAISVLYFDDSSNVILKKYRNMVVRACGCH
notes: mature growth factor (GF) domain of human BMP-7; also called BMP-7 GF; source: CHO cells; mature BMP-7 eluted from Zn-chelating Sepharose with 6 M urea

- Kd [2]: 0.03 nM
B2: anti-Müllerian hormone growth factor (AMH GF), the mature C-terminal domain (ligand, human, UniProt P03971 452-560, looked up)
chain: SAGATAADGPCALRELSVDLRAERSVLIPETYQANNCQGVCGWPQSDRNPRYGNHVVLLLKMQVRGAALARPPCCVPTAYAGKLLISLSEERISAHHVPNMVATECGCR
notes: C-terminal growth factor (GF) domain of human AMH, the mature product of cleavage at the monobasic site (R451); Disulfide-linked homodimer; also called mature GF; C-terminal GF; source: in the prodomain/GF rows it is the GF part of c-AMH (CHO cells, plasmin cleaved)
